The test has as its target soy bean agglutinin conjugated to HRP (soy bean), P05046. Kind of test: ELISA; soy bean agglutinin conjugated to HRP exposed to serial dilutions of PFA; colorimetric signal with TMB.

The source of these data is article PMC7423246, “A Peptide–Lectin Fusion Strategy for Developing a Glycan Probe for Use in Various Assay Formats” (Chemosensors (Basel, Switzerland), 2019).

In general, Kd refers to the equilibrium constant for the complex coming apart. Read a low Kd as a tighter complex.

Chain of soy bean agglutinin conjugated to HRP (soy bean), P05046 (P05046 33-285): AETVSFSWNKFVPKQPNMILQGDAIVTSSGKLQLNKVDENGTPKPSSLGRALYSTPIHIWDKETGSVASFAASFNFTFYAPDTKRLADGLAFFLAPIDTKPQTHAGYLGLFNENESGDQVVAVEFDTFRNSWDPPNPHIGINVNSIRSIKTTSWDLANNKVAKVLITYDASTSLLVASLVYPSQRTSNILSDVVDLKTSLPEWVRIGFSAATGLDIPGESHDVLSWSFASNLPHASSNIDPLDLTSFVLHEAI

B1: Pseudomonas fluorescens agglutinin (PFA) (natural protein)
chain: MSKYAVANQWGGSSAPWHPGGTWVLGARDNQNVVAIEIKSGDGGKSFTGTMTYAGEGPIGFKAQRTGQNQYNVENQWGGNDAPWHPGGKWVIGGRDNQNVIALSVTSSDGGKNLSGTNTYANEGPIGFRGQIEVSHPQAPF
modifications: not checked
As to B1, the Kd turned out to be 4 nM.
